Test results published in patent US5851983, “Elastase inhibitory polypeptide and process for production thereof by recombinant gene technology” (Teijin Limited, dated 1998).
Read-outs that look alike come from different tables or passages of the source. No end group written: not given here.

T1: Human cathepsin G (EPC Co., Funakoshi Yakuhin) (human, UniProt P08311)
T1 sequence: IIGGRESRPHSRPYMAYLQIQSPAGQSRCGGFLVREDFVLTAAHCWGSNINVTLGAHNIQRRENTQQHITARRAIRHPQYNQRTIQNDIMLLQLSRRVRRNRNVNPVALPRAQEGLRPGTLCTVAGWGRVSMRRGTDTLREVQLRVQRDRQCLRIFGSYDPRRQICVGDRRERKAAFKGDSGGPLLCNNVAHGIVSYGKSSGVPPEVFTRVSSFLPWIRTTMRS


What was measured:
[1] = biological target: Calf pancreatic chymotrypsin (Sigma) (calf (bovine), UniProt P00766); test: cell-based or functional assay
[2] = biological target: Porcine pancreatic elastase (Sigma) (porcine, UniProt P00772); test: cell-based or functional assay
Human plasma thrombin = Human plasma thrombin (human, UniProt P00734); test: cell-based or functional assay
Human plasma plasmin = Human plasma plasmin (human, UniProt P00747); test: cell-based or functional assay
Human plasma kallikrein = Human plasma kallikrein (human, UniProt P03952); test: cell-based or functional assay
[3] = biological target: T2, Polymorphonuclear leukocyte elastase from human sputum (EPC Co.; Funakoshi Yakuhin) (human, UniProt P08246); test: enzyme inhibition with chromogenic substrate, Ki by the Dixon method
Procedure: (§1) To each well of a 96-well ELISA microplate were added 140 μl of the above-mentioned buffer, 20 μl of a test solution, and 20 μl of the enzyme solution, and the mixture was stirred at 37° C. for 30 minutes. Next, 20 μl of the substrate solution was added to the well, the mixture was stirred at 37° C. for one hour to develop same, and the absorbance at 405 nm was measured.
(§2) Moreover, an inhibitory constant Ki of the present (Asn^55-Ala^107) SLPI was calculated on the basis of the above data by a method of Dixon, M. and Webb, E. C. (1979), Enzyme, Longman or a method of Henderson, P. J. F. (1972) Biochem. J., 127, 321–333.

[4] = biological target: T3, Calf pancreatic trypsin (Sigma) (calf (bovine), UniProt P00760); test: as above
Procedure: as §1, §2

[5] = biological target: T2, Polymorphonuclear leukocyte elastase …; test: enzyme inhibition with chromogenic substrate, Ki by the Henderson method
Procedure: as §1, §2

[6] = biological target: T3, Calf pancreatic trypsin (Sigma); test: as above
Procedure: as §1, §2

[7] = biological target: T1, Human cathepsin G (EPC Co., Funakoshi …); test: cell-based or functional assay
[8] = biological target: T4, Bovine spleen chymotrypsin (Sigma) (bovine, UniProt P00766); test: cell-based or functional assay
[9] = biological target: T5, Porcine spleen elastase (Sigma) (porcine, UniProt P00772); test: cell-based or functional assay
[10] = biological target: T1, Human cathepsin G (EPC Co., Funakoshi …); test: cell-based or functional assay; remark: listed apart in the source
[11] = biological target: T6, Bovine spleen trypsin (Sigma) (bovine, UniProt P00760); test: enzyme inhibition with Bz-Arg-pNA, Ki by the Henderson method
Procedure: (§3) To wells of an ELISA 96-well microtiter plate, were added 120 μl of the buffer, 20 μl of a sample solution of (Arg^59-Ala^107) SLPI obtained in Example 23, and 20 μl of the enzyme solution in this order, an the mixture was reacted at 37° C. for 1 hour. Next, 20 μl of the substrate was added to develop at 25° C. Absorption of the developed color was measured at 405 nm. As a control, SLPI was used.

[12] = biological target: T2, Polymorphonuclear leukocyte elastase …; test: enzyme inhibition with MeO-Suc-Ala-Ala-Pro-Val-pNA, Ki by the Henderson method
[13] = biological target: T4, Bovine spleen chymotrypsin (Sigma); test: cell-based or functional assay; remark: listed apart in the source
[14] = biological target: T5, Porcine spleen elastase (Sigma); test: cell-based or functional assay; remark: listed apart in the source
[15] = biological target: T1, Human cathepsin G (EPC Co., Funakoshi …); test: cell-based or functional assay; remark: listed apart in the source
[16] = biological target: T2, Polymorphonuclear leukocyte elastase …; test: enzyme inhibition; method not described
[17] = biological target: T6, Bovine spleen trypsin (Sigma); test: enzyme inhibition with Bz-Arg-pNA, Ki by the Henderson method; remark: listed apart in the source
Procedure: as §3, with “(Arg^55-Ala^107)” for “(Arg^59-Ala^107)”, “25,” for “23,”

[18] = biological target: T2, Polymorphonuclear leukocyte elastase …; test: enzyme inhibition with MeO-Suc-Ala-Ala-Pro-Val-pNA, Ki by the Henderson method; remark: listed apart in the source
Procedure: as §3, with “(Arg^55-Ala^107)” for “(Arg^59-Ala^107)”, “25,” for “23,”

| Binder | IC50 [8] [nM] | IC50 [9] [nM] | IC50 [10] [nM] | Ki [11] [nM] | Ki [12] [nM] | IC50 [13] [nM] | IC50 [14] [nM] | IC50 [15] [nM] | Ki [17] [nM] | Ki [18] [nM] | other results |
| --- | --- | --- | --- | --- | --- | --- | --- | --- | --- | --- | --- |
| (Asn^55 -Ala^107) SLPI fragment polypeptide (other, also: intramolecular disulfides in refolded form, pairing not given here) NPTRRKPGKCPVTYGQCLMLNPPNFCEMDGQCKRDLKCCMGMCGKSCVSPVKA |  |  |  |  |  |  |  |  |  |  | concentration of inhibitory protein which exhibits a 50% inhibition [1]: 10 nM; concentration of inhibitory protein which exhibits a 50% inhibition [2]: 200 nM; concentration of inhibitory protein which exhibits a 50% inhibition (Human plasma thrombin): > 2 µM; concentration of inhibitory protein which exhibits a 50% inhibition (Human plasma plasmin): > 2 µM; concentration of inhibitory protein which exhibits a 50% inhibition (Human plasma kallikrein): > 2 µM; Ki [3]: 0.03 nM; Ki [4]: 60 nM; Ki [5]: 0.2 nM; Ki [6]: 20 nM |
| RKPGKCPVTYGQCLMLNPPNFCEMDGQCKRDLKCCMGMCGKSCVSPVKA (other) [(Arg^59 -Ala^107) SLPI] | 5.8 | 11000 | 8 | 1100 | 0.08 |  |  |  |  |  | IC50 value [7]: 11 nM |
| Human secretory leukoprotease inhibitor (SLPI) (other) SGKSFKAGVCPPKKSAQCLRYKKPECQSDWQCPGKKRCCPDTCGIKCLDPVDTPNPTRRKPGKCPVTYGQCLMLNPPNFCEMDGQCKRDLKCCMGMCGKSCVSPVKA | 7 | 13000 | 5.5 | 33 | 0.08 | 7 | 13000 | 5.5 | 33 | 0.08 | Ki [16]: 0.25 nM |
| RRKPGKCPVTYGQCLMLNPPNFCEMDGQCKRDLKCCMGMCGKSCVSPVKA (other) [(Arg^58 -Ala^107) SLPI] |  |  |  |  |  | 6.8 | 23000 | 8 | 1100 | 0.09 |  |
